According to paper PMC4960239, “Flavoprotein-Mediated Tellurite Reduction: Structural Basis and Applications to the Synthesis of Tellurium-Containing Nanostructures” (Frontiers in Microbiology, 2016):

Key:
E3 = biological target: T1, E3 (Escherichia coli, UniProt P0A9P0); assay: Te0 formation, non-linear fit; assay type: biochemical; settings: 1 mM NADPH, 1 mM beta-mercaptoethanol, pH 6, 37 °C; substrate inhibition
T1 construct: gene lpdA; His-tagged full-length, ASKA clone, HisTrap purified, ~56 kDa
T1 sequence (P0A9P0 2-474): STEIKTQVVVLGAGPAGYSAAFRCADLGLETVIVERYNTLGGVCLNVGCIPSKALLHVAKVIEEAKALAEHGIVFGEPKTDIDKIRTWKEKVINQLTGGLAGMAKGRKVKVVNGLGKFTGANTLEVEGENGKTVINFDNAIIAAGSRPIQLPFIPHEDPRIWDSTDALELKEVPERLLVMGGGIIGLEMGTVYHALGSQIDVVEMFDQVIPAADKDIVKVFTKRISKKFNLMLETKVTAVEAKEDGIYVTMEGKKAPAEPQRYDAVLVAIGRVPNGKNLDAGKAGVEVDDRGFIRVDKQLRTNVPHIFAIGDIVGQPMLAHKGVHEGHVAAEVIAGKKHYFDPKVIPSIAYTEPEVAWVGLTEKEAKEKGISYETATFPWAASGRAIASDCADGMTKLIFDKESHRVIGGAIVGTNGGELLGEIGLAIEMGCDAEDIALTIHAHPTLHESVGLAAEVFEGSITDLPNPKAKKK

GorA = biological target: T2, GorA (Escherichia coli, UniProt P06715); assay: Te0 formation, non-linear fit; assay type: biochemical; settings: 1 mM NADPH, 1 mM beta-mercaptoethanol, pH 9, 37 °C; substrate inhibition
T2 construct: gene gor; His-tagged full-length, ASKA clone, HisTrap purified, ~49 kDa
T2 sequence (P06715 whole entry): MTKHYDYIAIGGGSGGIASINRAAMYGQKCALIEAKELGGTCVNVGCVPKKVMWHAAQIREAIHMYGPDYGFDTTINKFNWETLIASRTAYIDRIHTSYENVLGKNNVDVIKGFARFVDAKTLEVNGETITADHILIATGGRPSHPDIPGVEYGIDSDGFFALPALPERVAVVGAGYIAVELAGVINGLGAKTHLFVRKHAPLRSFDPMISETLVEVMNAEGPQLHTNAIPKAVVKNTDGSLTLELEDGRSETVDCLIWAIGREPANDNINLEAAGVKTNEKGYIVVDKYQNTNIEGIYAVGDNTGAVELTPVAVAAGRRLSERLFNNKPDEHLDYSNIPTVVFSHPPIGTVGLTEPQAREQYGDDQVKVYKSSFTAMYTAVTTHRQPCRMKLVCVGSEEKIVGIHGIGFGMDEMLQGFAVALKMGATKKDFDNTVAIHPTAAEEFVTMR

TrxB = biological target: T3, TrxB (Escherichia coli, UniProt P0A9P4); assay: Te0 formation, non-linear fit; assay type: biochemical; settings: 1 mM NADPH, 1 mM beta-mercaptoethanol, pH 10, 37 °C; substrate inhibition
T3 construct: His-tagged full-length, ASKA clone, HisTrap purified, ~35 kDa
T3 sequence (P0A9P4 2-321): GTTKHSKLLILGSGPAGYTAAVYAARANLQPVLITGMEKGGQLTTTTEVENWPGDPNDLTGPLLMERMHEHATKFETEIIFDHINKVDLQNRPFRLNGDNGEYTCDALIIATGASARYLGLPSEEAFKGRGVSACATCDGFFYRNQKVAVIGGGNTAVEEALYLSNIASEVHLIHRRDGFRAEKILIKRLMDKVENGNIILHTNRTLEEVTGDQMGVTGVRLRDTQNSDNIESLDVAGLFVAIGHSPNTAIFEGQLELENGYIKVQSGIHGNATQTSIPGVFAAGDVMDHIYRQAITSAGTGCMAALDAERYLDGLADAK

O=[Te](O)O = assay: purified protein; assay type: biochemical, Escherichia coli; settings: 1 mM beta-mercaptoethanol

## O=[Te](O)O [tellurite]
E3
  Ki apparent: 63.01 µM
GorA
  Ki apparent: 232.7 µM
TrxB
  Ki apparent: 37.13 µM

## E3 (Escherichia coli K-12)
O=[Te](O)O; 1 mM NADPH, pH 6, 37 °C
  Km: 47.94 µM
  Vmax: 84.5 µmol/min/mg

## YkgC (Escherichia coli K-12)
O=[Te](O)O; 1 mM NADH, pH 9, 37 °C
  Km: 517.1 µM
  Vmax: 2700 µmol/min/mg

## AhpF (Escherichia coli K-12)
O=[Te](O)O; 1 mM NADH, pH 10, 37 °C
  Km: 819.6 µM
  Vmax: 77900 µmol/min/mg

## TrxB (Escherichia coli K-12)
O=[Te](O)O; 1 mM NADPH, pH 10, 37 °C
  Km: 114.5 µM
  Vmax: 9590 µmol/min/mg

## NorW (Escherichia coli K-12)
O=[Te](O)O; 1 mM NADH, pH 11, 42 °C
  Km: 694.9 µM
  Vmax: 5350 µmol/min/mg

## GorA (Escherichia coli K-12)
O=[Te](O)O; 1 mM NADPH, pH 9, 37 °C
  Km: 89.47 µM
  Vmax: 6310 µmol/min/mg
